Experimental data from patent publication US12503511 (COMPASS THERAPEUTICS, dated 2025).

B1: mAb7 (antibody, V domains shown)
VH: QVQLVQSGAEVKKPGSSVKVSCKASGGTFSSYAINWVRQAPGQGLEWMGGIIPNFGTATYAQKFQGRVTITADESTSTAYMELSSLRSEDTAVYYCARLKGELKGAGDIWGQGTLVTVSS
VL: not shown
B2: mAb12 (antibody, V domains shown)
VH: QVQLVQSGAEVKKPGSSVKVSCKASGGTFSSYAISWVRQAPGQDLEWMGGIIPIVGIANYAQKFQGRVTITADESTSTAYMELSSLRSEDTAVYYCARLKGELKDAFDIWGQGTLVTVSS
VL: not shown
B3: mAb11 (antibody, V domains shown)
VH: QVQLVQSGAEVKKPGSSVKVSCKASGGTFSSYAINWVRQAPGQGLEWMGGVIPFLGTANYAQKFQGRVTITADESTSTAYMELSSLRSEDTAVYYCARLKGILKDALDIWGQGTLVTVSS
VL: not shown
B4: mAb16 (antibody, V domains shown)
VH: QVQLVQSGAEVKKPGSSVKVSCKASGGTFSSYAINWVRQAPGQGLEWMGRIIPIFGTADYAQKFQGRVTITADESTSTAYMELSSLRSEDTAVYYCARLKGELKDAFDIWGQGTLVTVSS
VL: not shown
B5: mAb14 (antibody, V domains shown)
VH: QVQLVQSGAEVKKPGSSVKVSCKASGGTFSSYAISWVRQAPGQGLEWMGRIIPLFGTAHYAQKFQGRVTITADESTSTAYMELSSLRSEDTAVYYCARLKGELKDAFDIWGQGTLVTVSS
VL: not shown
B6: mAb23 (antibody, V domains shown)
VH: QVQLVQSGAEVKKPGSSVKVSCKASGGTFSSYAINWVRQAPGQGLEWMGGIIPVFGTATYAQKFQGRVTITADESTSTAYMELSSLRSEDTAVYYCARLKGELKDAFDIWGQGTMVTVSS
VL: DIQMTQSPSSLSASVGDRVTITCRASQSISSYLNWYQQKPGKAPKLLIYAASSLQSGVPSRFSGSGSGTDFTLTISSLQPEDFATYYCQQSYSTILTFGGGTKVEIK
B7: mAb15 (antibody, V domains shown)
VH: QVQLVQSGAEVKKPGSSVKVSCKASGGTFSSYAISWVRQAPGQGLEWMGRINPILGTANYAQKFQGRVTITADESTSTAYMELSSLRSEDTAVYYCARLKGELKDAFSIWGQGTLVTVSS
VL: not shown
B8: mAb21 (antibody, V domains shown)
VH: QVQLVQSGAEVKKPGSSVKVSCKASGGPFRSHAVSWVRQAPGQGLEWMGGIIPVFGTATYAQKFQGRVTITADESTSTAYMELSSLRSEDTAVYYCARLKSELKDAFDIWGQGTLVTVSS
VL: not shown
B9: mAb13 (antibody, V domains shown)
VH: QVQLVQSGAEVKKPGSSVKVSCKASGGTFSSYAISWVRQAPGQGLEWMGGIIPVFGTATYAQKFQGRVTITADESTSTAYMELSSLRSEDTAVYYCARLKGEFKDAFDIWGQGTLVTVSS
VL: not shown
B10: mAb25 (antibody, V domains shown)
VH: EVQLLESGGGLVQPGGSLRLSCAASGFTFSDYAMSWVRQAPGKGLEWVSAISNSGTYTYYADSVKGRFTISRDNSKNTLYLQMNSLRAEDTAVYYCARGLDFIVGATGNDYWGQGTLVTVSS
VL: not shown
notes: also called parent PD-1 antibody mAb25
B11: mAb36 (antibody, V domains shown)
VH: EVQLLESGGGLVQPGGSLRLSCAASGFTFSSYAMNWVRQAPGKGLEWVSAISNSGTYTYYADSVKGRFTISRDNSKNTLYLQMNSLRAEDTAVYYCARGLDFIVGRTGNDYWGQGTLVTVSS
VL: not shown
B12: mAb33 (antibody, V domains shown)
VH: EVQLLESGGGLVQPGGSLRLSCAASGFTFNSYAMSWVRQAPGKGLEWVSAISNSGTYTYYADSVKGRFTISRDNSKNTLYLQMNSLRAEDTAVYYCARGLDFIVGYTGNDYWGQGTLVTVSS
VL: not shown
B13: mAb30 (antibody, V domains shown)
VH: EVQLLESGGGLVQPGGSLRLSCAASGFTFSAYAMNWVRQAPGKGLEWVSAISNSGTYTYYADSVKGRFTISRDNSKNTLYLQMNSLRAEDTAVYYCARGLDFIVGYTGNDYWGQGTLVTVSS
VL: not shown
B14: mAb29 (antibody, V domains shown)
VH: EVQLLESGGGLVQPGGSLRLSCAASGFTFSNYALSWVRQAPGKGLEWVSAISNSGTYTYYADSVKGRFTISRDNSKNTLYLQMNSLRAEDTAVYYCARGLDFIVGYTGNDYWGQGTLVTVSS
VL: not shown
B15: mAb32 (antibody, V domains shown)
VH: EVQLLESGGGLVQPGGSLRLSCAASGFTFGRYAMSWVRQAPGKGLEWVSAISNSGTYTYYADSVKGRFTISRDNSKNTLYLQMNSLRAEDTAVYYCARGLDFIVGYTGNDYWGQGTLVTVSS
VL: not shown
B16: mAb31 (antibody, V domains shown)
VH: EVQLLESGGGLVQPGGSLRLSCAASGFTFRSYAMSWVRQAPGKGLEWVSAISNSGTYTYYADSVKGRFTISRDNSKNTLYLQMNSLRAEDTAVYYCARGLDFIVGYTGNDYWGQGTLVTVSS
VL: not shown
B17: mAb26 (antibody, V domains shown)
VH: EVQLLESGGGLVQPGGSLRLSCAASGFTFSDYAMSWVRQAPGKGLEWVSAISNSGTYTYYADSVKGRFTISRDNSKNTLYLQMNSLRAEDTAVYYCARGLDFIVGYTGNDYWGQGTLVTVSS
VL: not shown
B18: mAb27 (antibody, V domains shown)
VH: EVQLLESGGGLVQPGGSLRLSCAASGFTFSSYAMSWVRQAPGKGLEWVSAISNSGTYTYYADSVKGRFTISRDNSKNTLYLQMNSLRAEDTAVYYCARGLDFIVGYTGNDYWGQGTLVTVSS
VL: not shown
B19: mAb35 (antibody, V domains shown)
VH: EVQLLESGGGLVQPGGSLRLSCAASGFTFSGYAMSWVRQAPGKGLEWVSAISNSGTYTYYADSVKGRFTISRDNSKNTLYLQMNSLRAEDTAVYYCARGLDFIVGRTGNDYWGQGTLVTVSS
VL: not shown

How the values were obtained:
[1] = target: T1, murine PD-L1 expressed on cells (murine, UniProt Q9EP73 19-290); assay: cell binding titration, A20 cells expressing murine PD-L1
T1 construct: whole, on cells; also called muPDL1; mouse PD-L1

[2] = target: T2, purified recombinant His tagged human PD-L1 (human, UniProt Q9NZQ7 19-238); assay: SPR (Carterra MX96), antibody on chip, His-tagged human PD-L1 injected
T2 construct: not shown: His tag

[3] = target: T3, human PD-L1 expressed on cells (human, UniProt Q9NZQ7 19-290); assay: cell binding titration, HEK cells expressing human PD-L1
T3 construct: also called huPDL1; human PD-L1 on HEK cells

[4] = target: T3, human PD-L1 expressed on cells; assay: cell binding EC50 on HEK-human PD-L1; fold improvement, reference taken as parent mAb24
[5] = target: T2, purified recombinant His tagged human …; assay: SPR KD; fold improvement, reference taken as parent mAb24
[6] = target: T4, murine PD-1 expressed on cells (murine, UniProt Q02242 25-288); assay: cell binding titration, CHO cells expressing murine PD-1
T4 construct: whole, on cells; also called muPD-1; mouse PD-1
T4 sequence (looked up): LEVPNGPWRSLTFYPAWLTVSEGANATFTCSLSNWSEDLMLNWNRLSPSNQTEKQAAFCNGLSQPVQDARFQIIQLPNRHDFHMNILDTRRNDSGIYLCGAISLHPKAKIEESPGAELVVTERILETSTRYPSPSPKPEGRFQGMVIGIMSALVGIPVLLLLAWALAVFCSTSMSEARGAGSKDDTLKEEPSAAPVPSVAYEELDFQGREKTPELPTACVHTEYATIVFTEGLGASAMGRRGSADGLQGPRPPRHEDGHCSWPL

[7] = target: T5, purified recombinant His tagged human PD-1 (human, UniProt Q15116 25-170); assay: SPR (Carterra MX96), antibody on chip, His-tagged human PD-1 injected
T5 construct: not shown: His tag

[8] = target: T6, human PD-1 expressed on cells (human, UniProt Q15116 25-288); assay: cell binding titration, CHO cells expressing human PD-1
T6 construct: also called huPD-1; CHO cells expressing human PD-1

[9] = target: T7, cyno PD-1 expressed on cells (cynomolgus); assay: cell binding titration, CHO cells expressing cyno PD-1
T7 construct: whole, on cells; also called cyPD-1; cynomolgus PD-1

[10] = target: T7, cyno PD-1 expressed on cells; assay: cell binding EC50 on CHO-cyno PD-1; fold improvement over parent mAb25
[11] = target: T5, purified recombinant His tagged human …; assay: SPR KD; fold improvement over parent mAb25
[12] = target: T6, human PD-1 expressed on cells; assay: cell binding EC50 on CHO-human PD-1; fold improvement over parent mAb25

T5 sequence (Q15116 25-170 limits assumed): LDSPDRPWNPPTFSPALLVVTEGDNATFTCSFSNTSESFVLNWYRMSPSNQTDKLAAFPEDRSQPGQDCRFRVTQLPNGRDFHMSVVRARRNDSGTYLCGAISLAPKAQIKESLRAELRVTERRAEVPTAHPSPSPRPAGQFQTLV
T6 sequence (Q15116 25-288 limits assumed): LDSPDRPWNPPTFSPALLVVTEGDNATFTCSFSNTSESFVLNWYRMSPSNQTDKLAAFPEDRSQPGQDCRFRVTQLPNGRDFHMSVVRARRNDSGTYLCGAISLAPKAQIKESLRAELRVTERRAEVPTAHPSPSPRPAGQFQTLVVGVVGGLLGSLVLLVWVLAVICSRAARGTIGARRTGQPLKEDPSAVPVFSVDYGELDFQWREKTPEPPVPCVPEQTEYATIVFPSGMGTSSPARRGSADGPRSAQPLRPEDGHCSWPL
T1 sequence (Q9EP73 19-290): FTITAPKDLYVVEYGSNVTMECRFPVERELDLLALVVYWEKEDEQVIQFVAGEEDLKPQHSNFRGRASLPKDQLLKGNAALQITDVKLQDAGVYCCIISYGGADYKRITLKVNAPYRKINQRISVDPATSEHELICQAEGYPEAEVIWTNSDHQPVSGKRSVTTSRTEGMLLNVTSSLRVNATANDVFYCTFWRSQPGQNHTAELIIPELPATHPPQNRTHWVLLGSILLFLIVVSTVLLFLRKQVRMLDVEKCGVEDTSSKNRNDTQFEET
T3 sequence (Q9NZQ7 19-290 limits assumed): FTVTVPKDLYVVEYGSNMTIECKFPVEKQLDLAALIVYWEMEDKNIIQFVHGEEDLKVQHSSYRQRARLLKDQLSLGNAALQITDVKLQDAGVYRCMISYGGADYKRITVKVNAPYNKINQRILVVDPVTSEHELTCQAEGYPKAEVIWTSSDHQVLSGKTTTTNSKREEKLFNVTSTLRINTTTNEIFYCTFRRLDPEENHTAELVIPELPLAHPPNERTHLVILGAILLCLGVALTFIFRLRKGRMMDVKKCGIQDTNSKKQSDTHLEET
T2 sequence (Q9NZQ7 19-238 limits assumed): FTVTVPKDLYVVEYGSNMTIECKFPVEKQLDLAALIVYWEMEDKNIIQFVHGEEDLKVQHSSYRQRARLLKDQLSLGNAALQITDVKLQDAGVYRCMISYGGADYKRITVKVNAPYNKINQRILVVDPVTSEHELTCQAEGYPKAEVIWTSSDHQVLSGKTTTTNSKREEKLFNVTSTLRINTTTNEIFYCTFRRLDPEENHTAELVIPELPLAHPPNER

Binder | binding result [1] | Kd [2] [nM] | EC50 [3] [nM] | Fold Improvement [4] [fold] | Fold Improvement [5] [fold] | binding result [6] | Kd [7] [nM] | EC50 [8] [nM] | EC50 [9] [nM] | Fold improvement over Parent [10] [fold] | Fold improvement over Parent [11] [fold] | Fold improvement over Parent [12] [fold] | EC50 [6] [nM]
B1 | no binding | – | – | – | – | – | – | – | – | – | – | – | –
B2 | no binding | 358 | 1.23 | 0.1 | – | – | – | – | – | – | – | – | –
B3 | no binding | 156 | 1.37 | 0.1 | – | – | – | – | – | – | – | – | –
B4 | no binding | – | – | – | – | – | – | – | – | – | – | – | –
B5 | no binding | – | 1.54 | 0.1 | – | – | – | – | – | – | – | – | –
B6 | no binding | 369 | 0.83 | 0.2 | – | – | – | – | – | – | – | – | –
B7 | no binding | – | – | – | – | – | – | – | – | – | – | – | –
B8 | no binding | 91.5 | 0.14 | 1 | 0.1 | – | – | – | – | – | – | – | –
B9 | no binding | 52.3 | 1.43 | 1 | 0.1 | – | – | – | – | – | – | – | –
B10 | – | – | – | – | – | no binding | 240 | 0.915 | 8.59 | – | – | – | –
B11 | – | – | – | – | – | – | 7.7 | 1.01 | 1.19 | 7.2 | 31 | 0.9 | –
B12 | – | – | – | – | – | – | 7 | 1.04 | 1.33 | 6.5 | 34 | 0.9 | 10.4
B13 | – | – | – | – | – | – | 3.1 | 2.77 | 2.05 | 4.2 | 77 | 0.3 | 4.05
B14 | – | – | – | – | – | – | 8.6 | 1.27 | 1.73 | 5 | 28 | 0.7 | 2.14
B15 | – | – | – | – | – | – | 2.1 | 1.51 | 1.29 | 6.7 | 114 | 0.6 | 2.8
B16 | – | – | – | – | – | – | 5.5 | 1.71 | 1.9 | 4.5 | 44 | 0.5 | 1.87
B17 | – | – | – | – | – | – | 10 | 3.74 | 1.54 | 5.6 | 24 | 0.2 | 17.9
B18 | – | – | – | – | – | – | 2.3 | 1.75 | 1.53 | 5.6 | 104 | 0.5 | 6.14
B19 | – | – | – | – | – | – | 9 | 1.64 | 2.66 | 3.2 | 27 | 0.6 | –
